The text below walks through data of the supplement of paper PMC11246515.

The data set can be described thus: total protein half-life in vivo (active degradation + dilution); higher = more stable protein.
The mark [1] stands for this setting: E. coli NCM3722 delta-clpP delta-lon delta-hslV, growth: N-lim chemostat, doubling time 6 h.
Setting [2] is: E. coli NCM3722 delta-clpP, growth: N-lim chemostat, doubling time 6 h.
Setting [3] is: E. coli NCM3722 delta-hslV, growth: N-lim chemostat, doubling time 6 h.
Setting [4] is: E. coli NCM3722 delta-lon, growth: N-lim chemostat, doubling time 6 h.
Setting [5] is: E. coli NCM3722 delta-smpB, growth: N-lim chemostat, doubling time 6 h.
The mark [6] stands for this setting: wild type E. coli NCM3722, growth: C-lim chemostat, doubling time 3 h.
The mark [7] stands for this setting: wild type E. coli NCM3722, growth: C-lim chemostat, doubling time 6 h.
Setting [8] is: wild type E. coli NCM3722, growth: C-lim chemostat, doubling time 12 h.
Where [9] appears, read: wild type E. coli NCM3722, growth: N-lim chemostat, doubling time 6 h.
[10] abbreviates: wild type E. coli NCM3722, growth: N-lim chemostat, doubling time 12 h.
The mark [11] stands for this setting: wild type E. coli NCM3722, growth: P-lim chemostat, doubling time 6 h.
Where [12] appears, read: wild type E. coli NCM3722, growth: P-lim chemostat, doubling time 12 h.

± gives the standard deviation of the averaged measurements.

Take “MKRHLNTCYRLVWNHMTGAFVVASELARARGKRGGVAVALSLAAVTSLPVLAADIVVHPGETVNGGTLANHDNQIVFGTTNGMTISTGLEYGPDNEANTGGQWVQDGGTANKTTVTSGGLQRVNPGGSVSDTVISAGGGQSLQGRAVNTTLNGGEQWMHEGAIATGTVINDKGWQVVKPGTVATDTVVNTGAEGGPDAENGDTGQFVRGDAVRTTINKNGRQIVRAEGTANTTVVYAGGDQTVHGHALDTTLNGGYQYVHNGGTASDTVVNSDGWQIVKNGGVAGNTTVNQKGRLQVDAGGTATNVTLKQGGALVTSTAATVTGINRLGAFSVVEGKADNVVLENGGRLDVLTGHTATNTRVDDGGTLDVRNGGTATTVSMGNGGVLLADSGAAVSGTRSDGKAFSIGGGQADALMLEKGSSFTLNAGDTATDTTVNGGLFTARGGTLAGTTTLNNGAILTLSGKTVNNDTLTIREGDALLQGGSLTGNGSVEKSGSGTLTVSNTTLTQKAVNLNEGTLTLNDSTVTTDVIAQRGTALKLTGSTVLNGAIDPTNVTLASGATWNIPDNATVQSVVDDLSHAGQIHFTSTRTGKFVPATLKVKNLNGQNGTISLRVRPDMAQNNADRLVIDGGRATGKTILNLVNAGNSASGLATSGKGIQVVEAINGATTEEGAFVQGNRLQAGAFNYSLNRDSDESWYLRSENAYRAEVPLYASMLTQAMDYDRIVAGSRSHQTGVNGENNSVRLSIQGGHLGHDNNGGIARGATPESSGSYGFVRLEGDLMRTEVAGMSVTAGVYGAAGHSSVDVKDDDGSRAGTVRDDAGSLGGYLNLVHTSSGLWADIVAQGTRHSMKASSDNNDFRARGWGWLGSLETGLPFSITDNLMLEPQLQYTWQGLSLDDGKDNAGYVKFGHGSAQHVRAGFRLGSHNDMTFGEGTSSRAPLRDSAKHSVSELPVNWWVQPSVIRTFSSRGDMRVGTSTAGSGMTFSPSQNGTSLDLQAGLEARVRENITLGVQAGYAHSVSGSSAEGYNGQATLNVTF”: the “total protein half-life in vivo” value was found to be 5.867 ± 0.045 h under setting [1]; 6.13 ± 0.57 h under setting [2]; 4.9 ± 0.93 h under setting [3]; 5.37 ± 0.085 h under setting [4]; 5.53 ± 0.46 h under setting [5]; 3.05 ± 0.062 h under setting [6]. The “total protein half-life in vivo” value reads like this: under setting [7], 4.43 ± 1.3 h; under setting [8], 4.46 ± 0.86 h; under setting [9], 5.92 ± 0.28 h; under setting [10], 9.16 ± 2 h; under setting [11], 5.77 ± 0.94 h; under setting [12], 11.9 ± 0.57 h.

With “MGSDAKNLMSDGNVQIVKTGEVIGATQLTEGELIVEAGGRAENTVVTGAGWLKVATGGIAKCTQYGNNGTLSVSDGAIATDIVQSEGGAISLSTLATVNGRHPEGEFSVDKGYACGLLLENGGNLRVLEGHRAEKIILDQEGGLLVNGTTSAVVVDEGGELLVYPGGEASNCEINQGGVFMLAGKASDTLLAGGTMNNLGGEDSDTIVENGSIYRLGTDGLQLYSSGKTQNLSVNVGGRAEVHAGTLENAVIQGGTVILLSPTSADENFVVEEDRAPVELTGSVALLDGASMIIGYGAELQQSTITVQQGGVLILDGSTVKGDSVTFIVGNINLNGGKLWLITDAATHVQLKVKRLRGEGAICLQTSAKEISPDFINVKGEVTGDIHVEITDASRQTLCNALKLQPDEDGIGATLQPA”, the “total protein half-life in vivo” value came out at 4.99 ± 0.55 h under setting [1]; 4.73 ± 0.33 h under setting [2]; 0.86 ± 0.11 h under setting [3]; 1.12 ± 0.029 h under setting [4]; 0.827 ± 0.0095 h under setting [5]; 1.15 ± 0.029 h under setting [6]. Besides, the “total protein half-life in vivo” value was 1.56 ± 0.18 h under setting [7]; 2.44 ± 0.65 h under setting [8]; 1.07 ± 0.041 h under setting [9]; 1.32 ± 0.13 h under setting [10]; 1.73 ± 0.34 h under setting [11]; 3.47 ± 1.2 h under setting [12].

Take “MIAITGATGQLGHYVIESLMKTVPASQIVAIVRNPAKAQALAAQGITVRQADYGDEAALTSALQGVEKLLLISSSEVGQRAPQHRNVINAAKAAGVKFIAYTSLLHADTSPLGLADEHIETEKMLADSGIVYTLLRNGWYSENYLASAPAALEHGVFIGAAGDGKIASATRADYAAAAARVISEAGHEGKVYELAGDSAWTLTQLAAELTKQSGKQVTYQNLSEADFAAALKSVGLPDGLADMLADSDVGASKGGLFDDSKTLSKLIGHPTTTLAESVSHLFNVNN”: the “total protein half-life in vivo” value is 5.42 ± 0.13 h under setting [1]; 4.93 ± 0.067 h under setting [2]; 4.99 ± 0.61 h under setting [3]; 5.3 ± 0.25 h under setting [4]; 4.569 ± 0.035 h under setting [5]; 3.2 ± 0.18 h under setting [6]. Moreover, the “total protein half-life in vivo” value by setting is: under setting [7], 5.84 ± 0.31 h; under setting [8], 8.9 ± 2 h; under setting [9], 5.15 ± 0.28 h; under setting [10], 8.33 h; under setting [11], 6.72 ± 0.65 h; under setting [12], 13.1 ± 1.4 h.

“MSSSCIEEVSVPDDNWYRIANELLSRAGIAINGSAPADIRVKNPDFFKRVLQEGSLGLGESYMDGWWECDRLDMFFSKVLRAGLENQLPHHFKDTLRIAGARLFNLQSKKRAWIVGKEHYDLGNDLFSRMLDPFMQYSCAYWKDADNLESAQQAKLKMICEKLQLKPGMRVLDIGCGWGGLAHYMASNYDVSVVGVTISAEQQKMAQERCEGLDVTILLQDYRDLNDQFDRIVSVGMFEHVGPKNYDTYFAVVDRNLKPEGIFLLHTIGSKKTDLNVDPWINKYIFPNGCLPSVRQIAQSSEPHFVMEDWHNFGADYDTTLMAWYERFLAAWPEIADNYSERFKRMFTYYLNACAGAFRARDIQLWQVVFSRGVENGLRVAR [P0A9H7]”: the “total protein half-life in vivo” value is 2.09 ± 0.32 h under setting [1]; 0.86 ± 0.041 h under setting [2]; 0.465 ± 0.078 h under setting [3]; 0.662 ± 0.29 h under setting [4]; 0.503 ± 0.04 h under setting [5]; 0.474 ± 0.077 h under setting [6]. Also, the “total protein half-life in vivo” value reads like this: under setting [7], 0.6003 ± 0.0022 h; under setting [8], 0.871 ± 0.26 h; under setting [9], 0.643 ± 0.12 h; under setting [10], 0.868 ± 0.22 h; under setting [11], 0.649 ± 0.26 h; under setting [12], 1.27 ± 0.76 h.

As for “MAVAANKRSVMTLFSGPTDIYSHQVRIVLAEKGVSFEIEHVEKDNPPQDLIDLNPNQSVPTLVDRELTLWESRIIMEYLDERFPHPPLMPVYPVARGESRLYMHRIEKDWYTLMNTIINGSASEADAARKQLREELLAIAPVFGQKPYFLSDEFSLVDCYLAPLLWRLPQLGIEFSGPGAKELKGYMTRVFERDSFLASLTEAEREMRLGRS [P0ACA3]”, the “total protein half-life in vivo” value runs as follows: under setting [1], 5.94 ± 0.21 h; under setting [2], 5.92 ± 0.064 h; under setting [3], 5.87 ± 0.5 h; under setting [4], 6.44 ± 0.27 h; under setting [5], 5.54 ± 0.15 h; under setting [6], 2.919 ± 0.029 h. Moreover, the “total protein half-life in vivo” value reads like this: under setting [7], 5.9 ± 0.62 h; under setting [8], 10.9 ± 0.67 h; under setting [9], 5.8 ± 0.29 h; under setting [10], 11.6 ± 0.58 h; under setting [11], 5.85 ± 0.11 h; under setting [12], 13.5 ± 1.2 h.

With “MLLEQGWLVGARRVPSPHYDCRPDDETPTLLVVHNISLPPGEFGGPWIDALFTGTIDPQAHPFFAEIAHLRVSAHCLIRRDGEIVQYVPFDKRAWHAGVSQYQGRERCNDFSIGIELEGTDTLAYTDAQYQQLAAVTRALIDCYPDIAKNMTGHCDIAPDRKTDPGPAFDWARFRVLVSKETT”, the “total protein half-life in vivo” value by setting is: under setting [1], 5.19 ± 0.54 h; under setting [2], 3.72 h; under setting [3], 3.07 ± 0.013 h; under setting [4], 3.75 ± 0.89 h; under setting [5], 2.96 ± 0.27 h; under setting [6], 3.18 ± 0.31 h. For the same sequence, the “total protein half-life in vivo” value was determined as 4.11 ± 0.3 h under setting [7]; 7.89 ± 1.5 h under setting [8]; 2.88 ± 0.77 h under setting [9]; 5.25 ± 0.51 h under setting [10]; 4.46 ± 0.12 h under setting [11]; 9.44 ± 0.099 h under setting [12].

Turning to “MSKPAITLWSDAHFFSPYVLSAWVALQEKGLSFHIKTIDLDSGEHLQPTWQGYGQTRRVPLLQIDDFELSESSAIAEYLEDRFAPPTWERIYPLDLENRARARQIQAWLRSDLMPIREERPTDVVFAGAKKAPLTAEGKASAEKLFAMAEHLLVLGQPNLFGEWCIADTDLALMINRLVLHGDEVPERLVDYATFQWQRASVQRFIALSAKQSG”, the “total protein half-life in vivo” value by setting is: under setting [1], 4.94 ± 0.39 h; under setting [2], 5.5 ± 1.7 h; under setting [3], 4.804 ± 0.025 h; under setting [4], 5.18 ± 0.9 h; under setting [5], 4.79 ± 0.39 h; under setting [6], 2.97 ± 0.081 h. Moreover, the “total protein half-life in vivo” value is, setting by setting: under setting [7], 5.9 ± 0.35 h; under setting [8], 9.65 ± 1.6 h; under setting [9], 4.86 ± 0.41 h; under setting [10], 8.65 ± 0.19 h; under setting [11], 5.764 ± 0.044 h; under setting [12], 12.5 ± 0.95 h.

On to “MAVEVKYVVIREGEEKMSFTSKKEADAYDKMLDTADLLDTWLTNSPVQMEDEQREALSLWLAEQKDVLSTILKTGKLPSPQVVGAESEEEDASHAA [P0ACY9]”, for which the “total protein half-life in vivo” value is 5.68 ± 0.58 h under setting [1]; 0.932 ± 0.076 h under setting [3]; 0.8842 ± 0.0032 h under setting [4]; 2.19 ± 0.32 h under setting [5]; 0.978 ± 0.016 h under setting [6]; 1.17 ± 0.072 h under setting [7]. The “total protein half-life in vivo” value by setting is: under setting [8], 1.28 h; under setting [9], 1.08 h; under setting [10], 1.8 ± 0.069 h; under setting [11], 0.976 ± 0.2 h; under setting [12], 2.4 h.

Take “MSLAKASLWTAASTLVKIGAGLLVGKLLAVSFGPAGLGLAANFRQLITVLGVLAGAGIFNGVTKYVAQYHDNPQQLRRVVGTSSAMVLGFSTLMALVFVLAAAPISQGLFGNTDYQGLVRLVALVQMGIAWGNLLLALMKGFRDAAGNALSLIVGSLIGVLAYYVSYRLGGYEGALLGLALIPALVVIPAAIMLIKRGVIPLSYLKPSWDNGLAGQLSKFTLMALITSVTLPVAYIMMRKLLAAQYSWDEVGIWQGVSSISDAYLQFITASFSVYLLPTLSRLTEKRDITREVVKSLKFVLPAVAAASFTVWLLRDFAIWLLLSNKFTAMRDLFAWQLVGDVLKVGAYVFGYLVIAKASLRFYILAEVSQFTLLMVFAHWLIPAHGALGAAQAYMATYIVYFSLCCGVFLLWRRRA [P0AAA7]”: the “total protein half-life in vivo” value under setting [11] turned out to be 5.48 h.

For “MGSEISKKDITRLGFRSSLLQASFNYERMQAGGFTWAMLPILKKIYKDDKPGLSAAMKDNLEFINTHPNLVGFLMGLLISMEEKGENRDTIKGLKVALFGPIAGIGDAIFWFTLLPIMAGICSSFASQGNLLGPILFFAVYLLIFFLRVGWTHVGYSVGVKAIDKVRENSQMIARSATILGITVIGGLIASYVHINVVTSFAIDNTHSVALQQDFFDKVFPNILPMAYTLLMYYFLRVKKAHPVLLIGVTFVLSIVCSAFGIL”, the “total protein half-life in vivo” value under setting [12] was 4.67 h.
